From patent publication US9845340B2, “Peptides that specifically bind HGF receptor (cMet) and uses thereof” (Dyax Corp., priority 2003, dated 2017)

How the values were obtained:
[1] = target: T1, 3T3 cells that over-express human cMet (Homo sapiens, UniProt P08581); assay: Whole cell ELISA of peptide-displaying phage; format: cell-based; conditions: phage isolate; 3T3 cells expressing human cMet vs. non-expressing 3T3 cells
T1 construct: expressed in transfected cells; host or cells: 3T3 cells
Outline: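 3T3 cells over-expressing human cMet seeded 10^5/well, pelleted and fixed with 0.1% glutaraldehyde 12 min at 37 °C. Blocked peptide-displaying phage bound 1 h at room temperature; after PBST wash, bound phage detected with HRP-conjugated anti-M13 antibody.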

cMet-Fc fusion protein = cMet-Fc fusion protein (Homo sapiens, UniProt P08581); assay: Protein phage ELISA: peptide-displaying phage binding to soluble cMet-Fc versus TRAIL-Fc; conditions: phage isolate; cMet-Fc vs. TRAIL-Fc
Outline: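 Plates coated with 0.5 μg/mL cMet-Fc or, as background, TRAIL-Fc, then blocked with 3% BSA in PBST. Peptide-displaying phage bound 2 h at room temperature. Detection with HRP-anti-M13 antibody.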

Chain of cMet-Fc fusion protein (P08581 25-307 limits assumed): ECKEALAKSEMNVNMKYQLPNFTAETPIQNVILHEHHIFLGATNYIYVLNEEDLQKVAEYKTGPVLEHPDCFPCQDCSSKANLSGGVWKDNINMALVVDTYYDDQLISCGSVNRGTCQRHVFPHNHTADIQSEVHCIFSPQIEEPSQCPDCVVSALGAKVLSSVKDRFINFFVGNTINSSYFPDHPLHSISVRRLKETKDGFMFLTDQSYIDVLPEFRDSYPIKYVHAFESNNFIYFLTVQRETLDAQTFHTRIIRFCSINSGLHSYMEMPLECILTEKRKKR
Chain of cMet-Fc fusion protein (P08581 with tags, fused parts or gaps limits assumed): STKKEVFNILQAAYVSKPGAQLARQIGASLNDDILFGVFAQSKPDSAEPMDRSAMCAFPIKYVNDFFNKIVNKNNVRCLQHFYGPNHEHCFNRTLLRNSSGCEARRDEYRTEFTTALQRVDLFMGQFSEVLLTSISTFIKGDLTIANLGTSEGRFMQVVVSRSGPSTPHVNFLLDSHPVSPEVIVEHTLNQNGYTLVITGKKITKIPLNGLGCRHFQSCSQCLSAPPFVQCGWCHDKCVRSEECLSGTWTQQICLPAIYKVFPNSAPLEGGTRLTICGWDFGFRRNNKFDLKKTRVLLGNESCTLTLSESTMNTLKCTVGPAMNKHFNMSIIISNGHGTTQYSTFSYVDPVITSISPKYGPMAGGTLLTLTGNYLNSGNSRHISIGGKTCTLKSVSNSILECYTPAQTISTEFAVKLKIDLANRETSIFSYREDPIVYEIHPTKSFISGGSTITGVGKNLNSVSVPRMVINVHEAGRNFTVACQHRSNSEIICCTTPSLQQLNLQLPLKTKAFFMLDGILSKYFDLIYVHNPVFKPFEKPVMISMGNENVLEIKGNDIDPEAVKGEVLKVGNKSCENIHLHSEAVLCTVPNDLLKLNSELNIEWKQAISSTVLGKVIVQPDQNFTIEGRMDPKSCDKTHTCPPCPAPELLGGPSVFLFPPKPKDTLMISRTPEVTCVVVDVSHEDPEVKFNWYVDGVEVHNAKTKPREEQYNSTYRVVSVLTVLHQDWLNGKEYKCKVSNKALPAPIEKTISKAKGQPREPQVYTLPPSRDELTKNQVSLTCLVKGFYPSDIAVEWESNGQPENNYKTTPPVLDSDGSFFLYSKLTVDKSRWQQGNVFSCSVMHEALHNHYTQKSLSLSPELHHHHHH
T1 sequence (P08581 25-1390): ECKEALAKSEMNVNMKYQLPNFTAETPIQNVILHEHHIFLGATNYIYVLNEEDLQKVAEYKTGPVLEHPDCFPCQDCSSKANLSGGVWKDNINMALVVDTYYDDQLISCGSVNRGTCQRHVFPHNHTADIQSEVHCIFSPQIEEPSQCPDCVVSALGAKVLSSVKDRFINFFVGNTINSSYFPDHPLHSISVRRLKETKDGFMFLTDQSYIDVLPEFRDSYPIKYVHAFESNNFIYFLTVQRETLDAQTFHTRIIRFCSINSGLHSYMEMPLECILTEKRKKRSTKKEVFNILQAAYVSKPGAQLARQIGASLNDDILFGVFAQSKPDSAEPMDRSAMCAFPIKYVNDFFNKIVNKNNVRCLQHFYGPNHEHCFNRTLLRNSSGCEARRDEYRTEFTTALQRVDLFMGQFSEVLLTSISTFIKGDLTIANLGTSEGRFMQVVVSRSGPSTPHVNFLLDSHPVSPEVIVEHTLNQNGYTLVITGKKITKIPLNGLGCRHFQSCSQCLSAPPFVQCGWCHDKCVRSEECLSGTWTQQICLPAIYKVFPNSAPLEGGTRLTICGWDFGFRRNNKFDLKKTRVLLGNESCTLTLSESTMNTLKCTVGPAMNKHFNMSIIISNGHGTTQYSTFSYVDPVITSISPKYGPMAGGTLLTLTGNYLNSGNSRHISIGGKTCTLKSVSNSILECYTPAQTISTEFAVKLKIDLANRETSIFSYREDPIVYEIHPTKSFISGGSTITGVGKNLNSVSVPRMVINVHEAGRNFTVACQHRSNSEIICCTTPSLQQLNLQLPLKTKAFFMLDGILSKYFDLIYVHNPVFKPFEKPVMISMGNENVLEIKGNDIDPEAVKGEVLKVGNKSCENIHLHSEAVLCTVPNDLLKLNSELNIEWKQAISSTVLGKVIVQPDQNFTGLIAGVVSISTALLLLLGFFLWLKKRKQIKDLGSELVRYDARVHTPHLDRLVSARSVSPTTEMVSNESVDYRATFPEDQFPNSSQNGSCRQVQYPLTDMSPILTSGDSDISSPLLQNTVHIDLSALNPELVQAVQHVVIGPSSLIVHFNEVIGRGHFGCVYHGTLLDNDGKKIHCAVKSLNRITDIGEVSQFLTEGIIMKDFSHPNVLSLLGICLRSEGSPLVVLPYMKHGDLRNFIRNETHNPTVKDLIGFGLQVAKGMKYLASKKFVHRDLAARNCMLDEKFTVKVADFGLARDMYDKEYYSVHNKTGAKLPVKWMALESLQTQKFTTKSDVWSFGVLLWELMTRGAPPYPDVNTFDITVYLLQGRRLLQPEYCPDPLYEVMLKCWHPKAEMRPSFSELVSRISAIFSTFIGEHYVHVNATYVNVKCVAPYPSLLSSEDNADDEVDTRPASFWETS

Compound | WC ELISA [1] [fold over background] | Protein ELISA (cMet-Fc fusion protein) [fold over background]
GSFNICPYQWCTLWAP (Synthetically generated cMet-binding peptide sequence) [SEQ ID NO: 010] | 1.37 | 3.0
AGETTCLGWPTFVCVDYGT (Synthetically generated cMet-binding peptide sequence) [SEQ ID NO: 063] | 1.27 | 5.3
AGDHYCWEEWWFCWDSGT (Synthetically generated cMet-binding peptide sequence) [SEQ ID NO: 021] | 1.37 | 3.5
AGDFICQGPPSFVCTNIGT (Synthetically generated cMet-binding peptide sequence) [SEQ ID NO: 097] | 1.27 | 8.4
GSSTICPGTACVDHAP (Synthetically generated cMet-binding peptide sequence) [SEQ ID NO: 008] | 1.27 | 3.2
AGSWECTGPPSFHCQWYGT (Synthetically generated cMet-binding peptide sequence) [SEQ ID NO: 070] | 1.37 | 3.9
AGSTDCRGHPTFECWGWGT (Synthetically generated cMet-binding peptide sequence) [SEQ ID NO: 086] | 1.30 | 5.2
AGKYMCEGFEWFCEMWGT (Synthetically generated cMet-binding peptide sequence) [SEQ ID NO: 037] | 1.43 | 4.1
AGYFECKGPPTFECWLSGT (Synthetically generated cMet-binding peptide sequence) [SEQ ID NO: 060] | 1.43 | 8.1
AGWTWCDLSMMSCIFHGT (Synthetically generated cMet-binding peptide sequence) [SEQ ID NO: 025] | 1.37 | 3.2
CC[C@H](C)[C@H](NC(=O)[C@H](CO)NC(=O)CNC(=O)[C@H](C)NC(C)=O)C(=O)N[C@@H](CCC(N)=O)C(=O)N[C@H]1CSSC[C@@H](C(=O)N[C@@H](C)C(=O)N[C@@H](CCSC)C(=O)N[C@@H](Cc2ccc(O)cc2)C(=O)NCC(=O)N[C@H](C(=O)NCC(=O)NCC(=O)NCC(=O)N[C@@H](CCCCNC(=O)c2ccc3c(c2)C(=O)OC32c3ccc(O)cc3Oc3cc(O)ccc32)C(N)=O)[C@@H](C)O)NC(=O)[C@H](CO)NC(=O)[C@H](Cc2ccccc2)NC(=O)[C@H](Cc2c[nH]c3ccccc23)NC(=O)[C@@H]2CCCN2C(=O)[C@@H]2CCCN2C(=O)CNC(=O)[C@H](CCCCN)NC1=O [SEQ ID NO: 048] | 1.47 | 15.9
AGYSVCKGYPSFECAFFGT (Synthetically generated cMet-binding peptide sequence) [SEQ ID NO: 075] | 1.33 | 5.8
AGHYWCAGPPTFICMGPGT (Synthetically generated cMet-binding peptide sequence) [SEQ ID NO: 062] | 1.40 | 10.2
AGGFACGPPWDICWMFGT (Synthetically generated cMet-binding peptide sequence) [SEQ ID NO: 011] | 1.30 | 5.6

Results, then the compound that gave them:

WC ELISA [1] [fold over background] | Protein ELISA (cMet-Fc fusion protein) [fold over background] | Compound
1.43 | 3.9 | GSGMGCHQVNISTGDCAEDAP (Synthetically generated cMet-binding peptide sequence) [SEQ ID NO: 381]
1.37 | 4.4 | CC[C@H](C)[C@H](NC(=O)[C@H](CC(C)C)NC(=O)[C@H](CCCCN)NC(=O)[C@H](CCC(=O)O)NC(=O)[C@@H](NC(=O)[C@@H](NC(=O)[C@@H](NC(=O)[C@H](C)NC(=O)[C@H](CO)NC(=O)[C@H](CC(C)C)NC(=O)[C@H](Cc1c[nH]c2ccccc12)NC(=O)[C@H](CC(=O)O)NC(=O)[C@@H]1CCCN1C(=O)[C@@H](NC(=O)[C@H](CCC(N)=O)NC(=O)[C@H](C)NC(C)=O)C(C)C)C(C)C)C(C)C)[C@@H](C)CC)C(=O)N[C@@H](CCC(=O)O)C(=O)N[C@@H](Cc1ccc(O)cc1)C(=O)NCC(=O)N[C@@H](CCSC)C(=O)N[C@@H](CCSC)C(=O)N[C@H](C(=O)NCC(=O)NCC(=O)NCC(=O)N[C@@H](CCCCNC(=O)c1ccc2c(c1)C(=O)OC21c2ccc(O)cc2Oc2cc(O)ccc21)C(N)=O)C(C)C [SEQ ID NO: 464]
1.17 | 7.0 | CC(=O)N[C@@H](C)C(=O)N[C@@H](CCC(N)=O)C(=O)N[C@@H](CCC(N)=O)C(=O)N[C@@H](C)C(=O)N[C@@H](CO)C(=O)N[C@@H](CCCNC(=N)N)C(=O)N[C@@H](Cc1ccccc1)C(=O)N[C@H](C(=O)N[C@@H](Cc1ccccc1)C(=O)N[C@H](C(=O)N[C@@H](CC(=O)O)C(=O)NCC(=O)N[C@@H](CC(=O)O)C(=O)N[C@@H](CO)C(=O)N[C@@H](Cc1ccc(O)cc1)C(=O)N[C@@H](Cc1c[nH]c2ccccc12)C(=O)N[C@@H](Cc1c[nH]c2ccccc12)C(=O)N[C@@H](Cc1ccccc1)C(=O)N[C@@H](CCC(=O)O)C(=O)N[C@@H](CC(=O)O)C(=O)N[C@@H](Cc1ccccc1)C(=O)NCC(=O)NCC(=O)NCC(=O)N[C@@H](CCCCNC(=O)c1ccc2c(c1)C(=O)OC21c2ccc(O)cc2Oc2cc(O)ccc21)C(N)=O)[C@@H](C)O)[C@@H](C)O [SEQ ID NO: 449]
1.17 | 3.0 | AQVGESLDDGWTFFSDKWFDFF (Synthetically generated cMet-binding peptide sequence) [SEQ ID NO: 485]
1.23 | 3.6 | AQELFQILEKQMWSDFMEWATP (Synthetically generated cMet-binding peptide sequence) [SEQ ID NO: 474]
1.30 | 7.0 | GDYYQCQFSKDMYSERCWPYDP (Synthetically generated cMet-binding peptide sequence) [SEQ ID NO: 397]
1.30 | 7.4 | GDPWWCFEKDSFIPFACWHHDP (Synthetically generated cMet-binding peptide sequence) [SEQ ID NO: 396]
1.20 | 3.8 | CC[C@H](C)[C@H](NC(=O)[C@H](C)NC(=O)[C@@H](NC(=O)[C@H](Cc1ccccc1)NC(=O)[C@H](Cc1ccccc1)NC(=O)[C@H](CC(N)=O)NC(=O)[C@H](CCCNC(=N)N)NC(=O)[C@@H](NC(=O)[C@H](Cc1c[nH]cn1)NC(=O)[C@H](CC(=O)O)NC(=O)[C@@H](NC(=O)[C@H](Cc1c[nH]c2ccccc12)NC(=O)[C@H](CC(C)C)NC(=O)[C@H](CCC(=O)O)NC(=O)[C@H](Cc1ccccc1)NC(=O)CNC(=O)[C@H](CCC(N)=O)NC(=O)[C@H](C)NC(C)=O)C(C)C)[C@@H](C)O)[C@@H](C)CC)C(=O)N[C@@H](CO)C(=O)N1CCC[C@H]1C(=O)NCC(=O)NCC(=O)NCC(=O)N[C@@H](CCCCNC(=O)c1ccc2c(c1)C(=O)OC21c2ccc(O)cc2Oc2cc(O)ccc21)C(N)=O [SEQ ID NO: 469]
1.23 | 3.2 | AQWGAVDNDWYDWEMEQIWMFE (Synthetically generated cMet-binding peptide sequence) [SEQ ID NO: 491]
1.27 | 3.7 | AQDPGFSKHSMGHGYPSKMNWG (Synthetically generated cMet-binding peptide sequence) [SEQ ID NO: 471]
1.23 | 4.3 | GDPDECQLNRETFEVWCPWHDP (Synthetically generated cMet-binding peptide sequence) [SEQ ID NO: 401]
1.37 | 12.4 | CC[C@H](C)[C@@H]1NC(=O)[C@H](Cc2ccccc2)NC(=O)[C@H](CCC(=O)O)NC(=O)[C@@H](NC(=O)[C@H](Cc2c[nH]cn2)NC(=O)[C@H](Cc2ccccc2)NC(=O)[C@H](CC(=O)O)NC(=O)[C@H](CC(=O)O)NC(=O)CNC(C)=O)CSSC[C@@H](C(=O)N[C@@H](Cc2ccc(O)cc2)C(=O)N[C@@H](Cc2ccccc2)C(=O)N[C@@H](CC(N)=O)C(=O)N[C@@H](CC(=O)O)C(=O)N2CCC[C@H]2C(=O)NCC(=O)NCC(=O)NCC(=O)N[C@@H](CCCCNC(=O)c2ccc3c(c2)C(=O)OC32c3ccc(O)cc3Oc3cc(O)ccc32)C(N)=O)NC(=O)[C@H]([C@@H](C)CC)NC(=O)[C@H](CCC(=O)O)NC(=O)[C@H](CO)NC(=O)[C@H](CCC(N)=O)NC(=O)[C@H](Cc2ccc(O)cc2)NC(=O)[C@H](CC(=O)O)NC(=O)[C@H](CC(=O)O)NC1=O [SEQ ID NO: 391]
1.30 | 3.4 | GDASMCYDGLALRWDQCWPHDP (Synthetically generated cMet-binding peptide sequence) [SEQ ID NO: 404]
